# Measurements: US11112401B2, “Method for determining the cell mediated immune competence of a subject” (Oxford Immunotec Limited, priority 2016, dated 2021)
# Test system: peripheral blood mononuclear cells (PBMCs)
# Experiment: ELISPOT screening of healthy donor samples with 23 commercially available peptide pools
# Format: cell-based, human
# Details: healthy donors, responsive donors/donors tested in brackets
molecule,measurement,value
"EBNA-3a Protein: Epstein barr nuclear antigen-3A as protein (number of peptides N/A) (protein, UniProt P12977 1-944, looked up) Epstein-Barr nuclear antigen 3: MDKDRPGPPALDDNMEEEVPSTSVVQEQVSAGDWENVLIELSDSSSEKEAEDAHLEPAQKGTKRKRVDHDAGGSAPARPMLPPQPDLPGREAILRRFPLDLRTLLQAIGAAATRIDTRAIDQFFGSQISNTEMYIMYAMAIRQAIRDRRRNPASRRDQAKWRLQTLAAGWPMGYQAYSSWMYSYTDHQTTPTFVHLQATLGCTGGRRCHVTFSAGTFKLPRCTPGDRQWLYVQSSVGNIVQSCNPRYSIFFDYMAIHRSLTKIWEEVLTPDQRVSFMEFLGFLQRTDLSYIKSFVSDALGTTSIQTPWIDDNPSTETAQAWNAGFLRGRAYGIDLLRTEGEHVEGATGETREESEDTESDGDDEDLPCIVSRGGPKVKRPPIFIRRLHRLLLMRAGKRTEQGKEVLEKARGSTYGTPRPPVPKPRPEVPQSDETATSHGSAQVPEPPTIHLAAQGMAYPLHEQHGMAPCPVAQAPPTPLPPVSPGDQLPGVFSDGRVACAPVPAPAGPIVRPWEPSLTQAAGQAFAPVRPQHMPVEPVPVPTVALERPVYPKPVRPAPPKIAMQGPGETSGIRRARERWRPAPWTPNPPRSPSQMSVRDRLARLRAEAQVKQASVEVQPPQLTQVSPQQPMEGPLVPEQQMFPGAPFSQVADVVRAPGVPAMQPQYFDLPLIQPISQGAPVAPLRASMGPVPPVPATQPQYFDIPLTEPINQGASAAHFLPQQPMEGPLVPEQWMFPGAALSQSVRPGVAQSQYFDLPLTQPINHGAPAAHFLHQPPMEGPWVPEQWMFQGAPPSQGTDVVQHQLDALGYTLHGLNHPGVPVSPAVNQYHLSQAAFGLPIDEDESGEGSDTSEPCEALDLSIHGRPCPQAPEWPVQEEGGQDATEVLDLSIHGRPRPRTPEWPVQGEGGQNVTGPETRRVVVSAVVHMCQDDEFPDLQDPPDEA",Percentage Responsive (10 spot arbitrary cut off),13% (19/137
